Data taken from patent US20240116985A1 (published 2024).
Starred links: 1 amine or outer side, 2 acyl side, 3 side chain; linkers in the order of their positions; H or OH if unused. Positions of bridges follow the written chain, without caps; N, C: chain ends. Non-standard residues stand in square brackets, D forms with d. Primed or numbered codes have the meaning given here. B5(17) = 2,2-bis(4-pentenyl)glycine = 2-amino-2-(pent-4-en-1-yl)hept-6-enoic acid, stitching residue, C=CCCCC(CCCC=C)(N[*:1])C(=O)[*:2]; B5(18) = 2,2-bis(4-pentenyl)glycine (2-amino-2-(pent-4-en-1-yl)hept-6-enoic acid), stitching residue, C=CCCCC(CCCC=C)(N[*:1])C(=O)[*:2]; B5(4) = 2,2-bis(4-pentenyl)glycine = 2-amino-2-(pent-4-en-1-yl)hept-6-enoic acid (stitching residue), C=CCCCC(CCCC=C)(N[*:1])C(=O)[*:2]; 6F1NapA = 2-amino-3-(6-fluoronaphthalen-1-yl)propanoic acid, O=C([C@H](Cc1cccc2cc(F)ccc12)N[*:1])[*:2]; B5(3) = 2,2-bis(4-pentenyl)glycine (stitching residue), C=CCCCC(CCCC=C)(N[*:1])C(=O)[*:2]; B5 = 2-amino-2-(pent-4-en-1-yl)hept-6-enoic acid, C=CCCCC(CCCC=C)(N[*:1])C(=O)[*:2]; Phe(F5) = N[C@@H](Cc1c(F)c(F)c(F)c(F)c1F)C(=O)O; Phe(3,4-F2) = N[C@@H](Cc1ccc(F)c(F)c1)C(=O)O; Phe(3-F) = N[C@@H](Cc1cccc(F)c1)C(=O)O; Phe(4-F) = N[C@@H](Cc1ccc(F)cc1)C(=O)O; 2Nal = N[C@@H](Cc1ccc2ccccc2c1)C(=O)O; hTyr = N[C@@H](CCc1ccc(O)cc1)C(=O)O; αAllylPro = C=CC[C@@]1(C(=O)O)CCCN1; hPhe = N[C@@H](CCc1ccccc1)C(=O)O; 4Pal = N[C@@H](Cc1ccncc1)C(=O)O; S8 = C=CCCCCCC[C@](C)(N)C(=O)O

T1: full-length beta-Catenin (Uniprot ID P35222) (Homo sapiens (Human), UniProt P35222 1-781)
T1 construct: The assay protocols call it full-length; also called B-Catenin; bCat
T1 sequence: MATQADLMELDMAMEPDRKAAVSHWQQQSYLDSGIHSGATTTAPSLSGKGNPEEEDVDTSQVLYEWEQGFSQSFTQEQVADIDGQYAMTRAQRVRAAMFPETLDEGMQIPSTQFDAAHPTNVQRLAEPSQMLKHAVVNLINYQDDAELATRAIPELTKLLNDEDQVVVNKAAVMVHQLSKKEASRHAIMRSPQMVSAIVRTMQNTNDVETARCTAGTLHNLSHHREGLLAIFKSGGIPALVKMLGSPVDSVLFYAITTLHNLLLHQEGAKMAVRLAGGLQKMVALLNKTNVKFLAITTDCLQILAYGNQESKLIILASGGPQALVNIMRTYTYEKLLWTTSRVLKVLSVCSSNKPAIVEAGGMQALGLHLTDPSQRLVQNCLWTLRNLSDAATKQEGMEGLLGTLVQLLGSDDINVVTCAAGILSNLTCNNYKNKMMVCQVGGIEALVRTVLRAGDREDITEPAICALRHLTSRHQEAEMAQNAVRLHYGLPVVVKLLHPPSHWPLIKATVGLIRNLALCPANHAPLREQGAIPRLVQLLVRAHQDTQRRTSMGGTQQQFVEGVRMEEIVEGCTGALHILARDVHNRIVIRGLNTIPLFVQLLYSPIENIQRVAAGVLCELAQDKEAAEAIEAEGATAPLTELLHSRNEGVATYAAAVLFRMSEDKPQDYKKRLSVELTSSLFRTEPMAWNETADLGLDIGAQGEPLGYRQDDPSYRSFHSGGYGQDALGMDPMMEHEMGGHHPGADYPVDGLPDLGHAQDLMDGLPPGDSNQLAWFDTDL

T2: full-length beta-Catenin (Uniprot ID P35222) (Homo sapiens (Human), UniProt P35222 1-781)
T2 construct: Used full-length in the FP and AlphaScreen assays; also called B-Catenin; bCat
T2 sequence: T1 sequence

B1: I-268 (peptide)
peptide: Ac-[αAllylPro]DA[B5(17)]DDAAFV[S8][hPhe]WQ-NH2
modifications: staple 1-4, 4-11
notes: Stapled (stitched) peptide; also called Ac-PL3-Asp-Ala-B5-Asp-Asp-Ala-Ala-Phe-Val-S8-hPhe-Trp-Gln-NH2
B2: I-256 (peptide)
peptide: Ac-[αAllylPro]DA[B5(4)]D[6F1NapA]AAFV[S8]FWQ-NH2
modifications: staple 1-4, 4-11
notes: Stapled (stitched) peptide; also called Ac-PL3-Asp-Ala-B5-Asp-6F1NapA-Ala-Ala-Phe-Val-S8-Phe-Trp-Gln-NH2
B3: I-272 (peptide)
peptide: Ac-[αAllylPro]DA[B5(17)]D[4Pal]AAFV[S8]FWQ-NH2
modifications: staple 1-4, 4-11
notes: Stapled (stitched) peptide; also called Ac-PL3-Asp-Ala-B5-Asp-4PyrA-Ala-Ala-Phe-Val-S8-Phe-Trp-Gln-NH2
B4: I-257 (peptide)
peptide: Ac-[αAllylPro]DA[B5(4)]D[Phe(3-F)]AAFV[S8]FWQ-NH2
modifications: staple 1-4, 4-11
notes: Stapled (stitched) peptide; also called Ac-PL3-Asp-Ala-B5-Asp-3FF-Ala-Ala-Phe-Val-S8-Phe-Trp-Gln-NH2
B5: I-274 (peptide)
peptide: Ac-[αAllylPro]DA[B5(4)]DYAAFV[S8]FWQ-NH2
modifications: staple 1-4, 4-11
notes: Stapled (stitched) peptide; also called Ac-PL3-Asp-Ala-B5-Asp-Tyr-Ala-Ala-Phe-Val-S8-Phe-Trp-Gln-NH2
B6: I-258 (peptide)
peptide: Ac-[αAllylPro]DA[B5]D[Phe(4-F)]AAFV[S8]FWQ-NH2
modifications: staple 1-4, 4-11
notes: Stapled (stitched) peptide; also called Ac-PL3-Asp-Ala-B5-Asp-4FF-Ala-Ala-Phe-Val-S8-Phe-Trp-Gln-NH2
B7: I-282 (peptide)
peptide: XDAXEDAAFVXFWQ
modifications: not fully specified; N-terminal Ac; PL3 at 1; B5 at 4; S8 at 11; C-terminal NH2; staples PL3(1)-B5(4) and B5(4)-S8(11) by olefin metathesis
notes: Stapled (stitched) peptide; also called Ac-PL3-Asp-Ala-B5-Glu-Asp-Ala-Ala-Phe-Val-S8-Phe-Trp-Gln-NH2
B8: I-280 (peptide)
peptide: XEAXDDAAFVXFWQ
modifications: not fully specified; N-terminal Ac; PL3 at 1; B5 at 4; S8 at 11; C-terminal NH2; staples PL3(1)-B5(4) and B5(4)-S8(11) by olefin metathesis
notes: Stapled (stitched) peptide; also called Ac-PL3-Glu-Ala-B5-Asp-Asp-Ala-Ala-Phe-Val-S8-Phe-Trp-Gln-NH2
B9: I-281 (peptide)
peptide: XDAXEDAAFVXFWQ
modifications: not fully specified; N-terminal Ac; PL3 at 1; B5 at 4; S8 at 11; C-terminal NH2; staples PL3(1)-B5(4) and B5(4)-S8(11) by olefin metathesis
notes: as for B7
B10: I-279 (peptide)
peptide: XEAXDDAAFVXFWQ
modifications: not fully specified; N-terminal Ac; PL3 at 1; B5 at 4; S8 at 11; C-terminal NH2; staples PL3(1)-B5(4) and B5(4)-S8(11) by olefin metathesis
notes: as for B8
B11: I-284 (peptide)
peptide: Ac-[αAllylPro]DA[B5(4)]DDAAFV[S8]NWQ-NH2
modifications: staple 1-4, 4-11
notes: Stapled (stitched) peptide; also called Ac-PL3-Asp-Ala-B5-Asp-Asp-Ala-Ala-Phe-Val-S8-Asn-Trp-Gln-NH2
B12: I-283 (peptide)
peptide: Ac-[αAllylPro]DA[B5(4)]DDAAFV[S8]DWQ-NH2
modifications: staple 1-4, 4-11
notes: Stapled (stitched) peptide; also called Ac-PL3-Asp-Ala-B5-Asp-Asp-Ala-Ala-Phe-Val-S8-Asp-Trp-Gln-NH2
B13: I-259 (peptide)
peptide: Ac-[αAllylPro]DA[B5]D[Phe(3,4-F2)]AAFV[S8]FWQ-NH2
modifications: staple 1-4, 4-11
notes: Stapled (stitched) peptide; also called Ac-PL3-Asp-Ala-B5-Asp-34FF-Ala-Ala-Phe-Val-S8-Phe-Trp-Gln-NH2
B14: I-269 (peptide)
peptide: Ac-[αAllylPro]DA[B5(17)]DDAAFV[S8][hTyr]WQ-NH2
modifications: staple 1-4, 4-11
notes: Stapled (stitched) peptide; also called Ac-PL3-Asp-Ala-B5-Asp-Asp-Ala-Ala-Phe-Val-S8-hTyr-Trp-Gln-NH2
B15: I-273 (peptide)
peptide: Ac-[αAllylPro]DA[B5(17)]D[hTyr]AAFV[S8]FWQ-NH2
modifications: staple 1-4, 4-11
notes: Stapled (stitched) peptide; also called Ac-PL3-Asp-Ala-B5-Asp-hTyr-Ala-Ala-Phe-Val-S8-Phe-Trp-Gln-NH2

Biological target: T1, full-length beta-Catenin (Uniprot ID …)
Experiment: AlphaScreen competition; full-length beta-catenin with biotin-labelled TCF4 10-53 peptide as competitor
Method: (§1) Equal volume of the titrated peptide was added to the plate and incubated for 15 minutes at 20° C. Then 4 uL of donor and 4 uL acceptor beads at 10 ug/mL were added to the plate, for a 16 uL reaction pool and protected from light for 60 minutes at 20° C. prior to read. Reads were performed on a CLARIOstar plate reader (BMG Labtech) in duplicate, and data were fitted to a 1:1 binding model with hill slope using an in-house script. All provided concentrations are final concentrations.

Going from B1 to B2, the EC50 rises from 4 µM to 9.21 µM (2.3-fold). The first is the more potent here.

Compared with B3, B4 is 3.8-fold higher in EC50: 1.01 µM for the first, 3.81 µM for the second. The first is the more potent here.

B5 and B6 are within 1.5-fold of each other in EC50: 2.35 µM for the first, 2.93 µM for the second.

B7 and B8 are within 1.5-fold of each other in EC50: 3.53 µM for the first, 3.05 µM for the second.

B9 and B10 are within 1.5-fold of each other in EC50: 6.26 µM for the first, 4.96 µM for the second.

Compared with B11, B12 is 2.2-fold higher in EC50: 4.35 µM for the first, 9.54 µM for the second. The first is the more potent here.

B13 and B14 are within 1.5-fold of each other in EC50: 4.18 µM for the first, 5.31 µM for the second.

For B15, the EC50 was 1.89 µM.

Biological target: T2, full-length beta-Catenin (Uniprot ID …)
Experiment: AlphaScreen (nickel chelate) competition; full-length beta-catenin + biotin-TCF4(10-53) probe as competitor; peptide titrated
Method: as §1

Ac-[αAllylPro]DA[B5(18)]DEAA[Phe(3,4-F2)]A[S8]F[2Nal]A-NH2 (staple 1-4, 4-11, Stapled peptide composition) [I-185] and Ac-[αAllylPro]DA[B5(4)]DEAAFV[S8][Phe(F5)]WQ-NH2 (staple 1-4, 4-11, Stapled peptide composition) [I-183] are within 1.5-fold of each other in EC50: 2.66 µM for the first, 3.77 µM for the second.

Compared with Ac-[αAllylPro]FA[B5(3)]DEAAFV[S8]FWQ-NH2 (staple 1-4, 4-11, Stapled peptide composition) [I-201], Ac-[αAllylPro]DA[B5(4)]HEAAFV[S8]FWQ-NH2 (staple 1-4, 4-11, Stapled peptide composition) [I-206] is 2.9-fold lower in EC50: 6.16 µM for the first, 2.14 µM for the second.

Ac-[αAllylPro][Phe(3-F)]A[B5(3)]DEAAFV[S8]FWQ-NH2 (staple 1-4, 4-11, Stapled peptide composition) [I-204] and Ac-[αAllylPro]YA[B5(3)]DEAAFV[S8]FWQ-NH2 (staple 1-4, 4-11, Stapled peptide composition) [I-202] are within 1.5-fold of each other in EC50: 7.28 µM for the first, 7.88 µM for the second.
